According to patent US20250027068:

B1: PRT-375 (protein)
chain: MSQTEDSESLQRLRDIEDFQAEKKKQNVVYTKWLDGVDVKDHDFRKIVDGNEAYYATPLLNGRGFYDINKDFNRDNDKCAAAVAANMFHYWLDRNRDNVDRFLRQNPEKHGIIELPDGQLKLSDFLNTYESDDGYRDKSKLFDFISENFNGPVWTDKLLDNYINGYAYNYKYGRLIEDSTKNTSKINFFKEVFNEKILTNNHSIRNQNELSVLLSEALYTGKAIGLSYGPAGTRHSLGHIISVWGADLDADGNVVAIYVTDSDDKKLTIGDERVGLKRYKISTDDEGRLRLTAYEETHNTGGQIRGLWTLDTGKQAWADYFDKTEQTGTDQAEQ
B2: PRT-553 (protein)
chain: MANQEIRYSEETPKTITSIWTKGVTPPTDFIKNEDVLHAPYVANQGWYDITKTFNGKDDLLCGAATAGNMLHWWFDQNKEEIENYLKKHPEKQKINFNGEQMFDVKEAIDTKDSQTDSKLFEYFKDKAFPYLSTKHLGVFPDHVIDMFINGYRLSLTNHGPTPVKRGTKDPRGGIFDAVFTRGDQTKLLTERHDFKEKTLNEISDLIKQELTEGKALGLSHTYANVRINHVINLWGADFNSEGNLEAIYVTDSDSNASIGMKKYYVGVNAAGKVAISAKEIEDDNIGAQVLGLFTLSTGKDIWEQTNLEHHHHHH
B3: PRT-526 (protein)
chain: MANQEIRYSEETPKTITSVWTKGVTPPTDFIKNEDVLHAPYIANQGWYDITKTFNGKDDLLCGAATAGNMLHWWFDQNKEEIERYLKKHPEKQKINFNGEQMFDVKEAIDTKDSQTDSALFEYFKDKAFPNLSTKHLGVMPDHVLDMFINGYYLSLGKHGPTPVKRGTKDPRGGIFDAVFTRGDQSKLLTSRHDFKEKTLKEISDLIKQELTEGKALALSHTYANVRINHVINLWGADFDSEGNLEAIYVTDSDSNASIGMKKYYVGVNSAGKVAISAKEIEGDNIGAQVLGLFTLSTGQDIWEQTNLEHHHHHH
B4: PRT-586 (protein)
chain: MANQEIRYSEETPKTITSVWTKGVTPPTDFIYNEDVLHAPYIANQGWYDITKTFNGKDDLLCGAATAGNMLHWWFDQNKEQIERYLKKHPEKQKINFNGEQMFDVKEAIDTKDSQTDSKLFEYFKDKAFPYLSTKHLGVFPDHVIDMFINGYRLSLTNHGPTPVKRGTKDPRGGIFDAVFTRGDQSKLLTSRHDFKEKTLNEISDLIKQELTEGKALGLSHTYANVRINHVINLWGADFNAEGNLEAIYVTDSDSNASIGMKKYYVGVNSAGKVAISAKEIEGDNIGAQVLGLFTLSTGQDIWEQTNLEHHHHHH
B5: PRT-595 (protein)
chain: MANQEIRYSEETPSTITSVWTKGVTPPTDFIQNEDVLHAPYIANQGWYDITKTFNGKDDLLCGAATAGNMLHWWFDQNKEQIENYLKKHPEKQKINFNGEQMFDVKEAIDTKDSQTDSALFEYFKDKAFPYLSTKHLGVFPDHVIDMFINGYRLSLTNHGPTPVKRGTKDPRGGIFDAVFTRGDQSKLLTSRHDFKEKNLNEISDLIKQELTEGKALGLSHTYANVRINHVINLWGADFNAEGNLEAIYVTDSDSNASIGMKKYYVGVNSAGKVAISAKEIEGDNIGAQVLGLFTLSTGQDIWNQTNLEHHHHHH
B6: PRT-566 (protein)
chain: MANQEIRYSEETPSTITSVWTKGVTPPTQFIQNEDVLHAPYIANQGWYDITKTFNGKDDLLCGAATAGNMLHWWFDQNKEQIENYLKKHPEKQKINFNGEQMFDVKEAIDTKDSQTDSALFEYFKDKAFPYLSTKHLGVFPDHVIDMFINGYRLSLTNHGPTPVKRGTKDPRGGIFDAVFTRGDQSKLLTSRHDFKEKTLNEISDLIKQELTEGKALGLSHTYANVRINHVINLWGADFNAEGNLEAIYVTDSDSNASIGMKKYYVGVNSAGKVAISAKEIEGDNIGAQVLGLFTLSTGQDIWNQTNLEHHHHHH
B7: PRT-582 (protein)
chain: MANQEIRYSKAKPKVITSVWTKGVTPPTQFTKNEDVFHAPYLANQGWYDITKTFNGKDDLLCGAATAGNMLHWWFDQNKEQIERYLKKHPEKQKINFNGEQMFDVKEAIDTKDSQTNSKLFNYFKDKAFPYLSTKHLGVFPDHVIDMFINGYRLSLTNHGPTPVKEQNKDPRGGIFDDVFTRGDQSKLLTSRHDFKEKTLKEISDLIKQELKEGKALGLSHTYANVRINHVINLWGADFDAEGNLVAIYVTDSDSNASIGMKKYYVGVNSAGKVAISAKEIEDDNIGAQVLGLFTLSTGKDIWEKTNLEHHHHHH
B8: PRT-576 (protein)
chain: MANQEIRYSKATPSTITSVWTKGVTPPENFIYNEDVLHAPYLANQGWYDITKTFNGKDDLLCGAATAGNMLHWWFDQNKEQIERYLKKHPEKQKINFNGEQMFDVKEAIDTKDSQTNSKLFEYFKDKAFPYLSTKHLGVFPDHVIDMFINGYRLSLTNHGPTPVKEQTKDPRGGIFDAVFTRGDQSKLLTSRHDFKEKTLNEISDLIKQELTEGKALGLSHTYANVRINHVINLWGADFNAEGNLEAIYVTDSDSNASIGMKKYYVGVNSAGKVAISAKEIEGDNIGAQVLGLFTLSTGQDIWQQTNLEHHHHHH
B9: PRT-533 (protein)
chain: MANQEIRYSSDSEWANKKVWVYGITPPEEGAWKYSTYYLPWKKEYGWYDCNKRNPTADGMMCWAATASNLLHWWIAQNKEYIDLYGDKYKGPDKINFNGEQMFDVKEYIDPLDKPQESDIFQCFIDKSFADLSTKHEAGYGDAGINWFIHGIIPSSPAHGPTPVKLDYPYNPAGYFKDVFPRGDGVVLLGNNGDFKELSKERFNETIKDALKNKKAIGLSIGPVNVRSSHVVTIWGAEFDENGDVSYIYMADNNDRWGVGCIRYQIVYEEGGTYTCYKTEIIPSDRPIPINRLVTLELGEEYWKQTNLEHHHHHH
B10: PRT-245 (protein)
chain: MVTSVWTKGVTPPANFTQGEDVFHAPYVANQGWYDITKLFNGKDDLLCGAATAGNMLHWWFDQNKDQIKRYLEEHPEKQKINFNGEQMFDVKEAIDTKNHQLDSKLFEYFLEKAFPNLSTKHLGVFPDHVIDMFINGYRLSLLNHGPTPVKEGSKDPRGGIFDAVFTRGDQSKLLTSRHDFKEKNLKEISDLIKKELTEGKALGLSHTYANGRINHVINLWGADFDSNGNLKAIAVTDSDSNASIGMKKYFVGVNSSGKVAISAKEIKEDNIGAQVLGLFTLSTGQDSWNQTN
B11: PRT-253 (protein)
chain: MVTSVWTKGVTPPTNFTYGEDVLHAPYVANQGWYDITKTFNGKDDLLCGAATAGNMLHWWFDQNKEQIENYLKKHPEKQKINFNGEQMFDVKEAIDTKDSQLDSKLFEYFLEKAFPNLSTKHLGVFPDHVIDMFINGYRLSLLNHGPTPVKRGSKDPRGGIFDAVFTRGDQSKLLTNRHDFKEKTLKEISDLIKQELTEGKALGISHTYANVRINHVINLWGADFDAEGNLEAIYVTDSDSNKSIGMKKYFVGVNSDGKVAISAKEIEEDNIGAQVLGLFTLSTGQDIWNQTN
B12: PRT-261 (protein)
chain: MVTSVWTKGVTPPTNFTYGEDVLHAPYVANQGWYDITKLFNGKDNLLCGAATAGNMLHWWFDQNKEQIENYLKKHPEKQKINFNGEQLFDVKEAIDTKDSQLDSKLFDYFKEKAFPNLSTKHLGVFPDHVIDMFINGYRLSLLNHGPTPVKRGSKDKRGGIFDAVFTRGVQSKLLTNRHDFKEKTLKEISDLIKQELTEGKALGISHTYANGRINHVINLWGADFDAEGNLEAIYVTDSDTNPSIGMKKYFVGVNSSGKVAISAKEIEEDNIGAQVLGLFTLSTGQDIWNQTN
B13: PRT-269 (protein)
chain: MVTSVWTKGVTPPTDFIYGEDVLHAPYKAGQGWYDITKTFNGKDDLLCGAATAGNMLHWWFDQNKEQIENYLKKHPEKQKINFNGEQMFDVKEAIDTKDSQLDSKLFEYFLEKAFPNLSTKHLGVFPDHVIDMFINGYRLSLLNHGPTPVKRGSKDPRGGIFDAVFTRGDQSKLLTNRHDLKNKTLKEISDLIKQELTEGKALGISHTYANVRINHVINLWGADFDAEGNLEAIAVTDSDSNASIGMKKYFVGVNSSGKVAISAKEIEEDNIGAQVLGLFTLSTGQDIWNQTN
B14: PRT-559 (protein)
chain: MANQEIRYSEETPKTITSIWTKGVTPPTDFIKTEDVLHAPYVANQGWYDITKTFNGKDDLLCGAATAGNMLHWWFDQNKEEIENYLKKHPEKQKINFNGEQMFDVKEAIDTKDSQTDSALFEYFKDKAFPYLSTKHLGVFPDHVIDMFINGYRLSLTNHGPTPVKDGTKDPRGGIFDAVFTRGDQTKLLTERHDFKEKTLNEISDLIKQELTEGKALGLSHTYANVRINHVINLWGADFNSEGNLEAIYVTDSDSNASIGMKKYYVGVNAAGKVAISAKEIEDDNIGAQVLGLFTLSTGQDIWEQTNLEHHHHHH

Target: pooled human IgG (human IgG1, 2, 3 and 4)

Q: How did the Enzyme Activity Endpoint Assay: Fab′2 turn out when B1 was run?
A: 170 ng/µL

Q: What about the Enzyme Activity Endpoint Assay: Fc of the same protein?
A: 115 ng/µL

Q: And the Enzyme Activity Endpoint Assay: IgG?
A: 0 ng/µL

Q: And the Enzyme Activity Endpoint Assay: scIgG?
A: 180 ng/µL

Q: What does the source list for B2?
A: Enzyme Activity Endpoint Assay: Fab′2: 79 ng/µL; Enzyme Activity Endpoint Assay: Fc: 229 ng/µL; Enzyme Activity Endpoint Assay: IgG: 111 ng/µL; Enzyme Activity Endpoint Assay: scIgG: 764 ng/µL

Q: With B3 as the protein, how does the Enzyme Activity Endpoint Assay: Fab′2 read?
A: 246 ng/µL

Q: What about the Enzyme Activity Endpoint Assay: Fc of the same protein?
A: 379 ng/µL

Q: What about the Enzyme Activity Endpoint Assay: IgG of the same protein?
A: 110 ng/µL

Q: And the Enzyme Activity Endpoint Assay: scIgG?
A: 627 ng/µL

Q: Which results are given for B4?
A: Enzyme Activity Endpoint Assay: Fab′2: 478 ng/µL; Enzyme Activity Endpoint Assay: Fc: 322 ng/µL; Enzyme Activity Endpoint Assay: IgG: 77 ng/µL; Enzyme Activity Endpoint Assay: scIgG: 458 ng/µL

Q: With B5 as the protein, how does the Enzyme Activity Endpoint Assay: Fab′2 read?
A: 1040 ng/µL

Q: And the Enzyme Activity Endpoint Assay: Fc?
A: 452 ng/µL

Q: What about the Enzyme Activity Endpoint Assay: IgG of the same protein?
A: 0 ng/µL

Q: What about the Enzyme Activity Endpoint Assay: scIgG of the same protein?
A: 0 ng/µL

Q: How did the Enzyme Activity Endpoint Assay: Fab′2 turn out when B6 was run?
A: 621 ng/µL

Q: And the Enzyme Activity Endpoint Assay: Fc?
A: 366 ng/µL

Q: What about the Enzyme Activity Endpoint Assay: IgG of the same protein?
A: 0 ng/µL

Q: What about the Enzyme Activity Endpoint Assay: scIgG of the same protein?
A: 0 ng/µL

Q: For B7, which Enzyme Activity Endpoint Assay: Fab′2 is on record?
A: 28 ng/µL

Q: And the Enzyme Activity Endpoint Assay: Fc?
A: 183 ng/µL

Q: And the Enzyme Activity Endpoint Assay: IgG?
A: 329 ng/µL

Q: What about the Enzyme Activity Endpoint Assay: scIgG of the same protein?
A: 754 ng/µL

Q: What does the source list for B8?
A: Enzyme Activity Endpoint Assay: Fab′2: 903 ng/µL; Enzyme Activity Endpoint Assay: Fc: 365 ng/µL; Enzyme Activity Endpoint Assay: IgG: 0 ng/µL; Enzyme Activity Endpoint Assay: scIgG: 0 ng/µL

Q: Which Enzyme Activity Endpoint Assay: Fab′2 does the source give for B9 here?
A: 0 ng/µL

Q: And the Enzyme Activity Endpoint Assay: Fc?
A: 0 ng/µL

Q: And the Enzyme Activity Endpoint Assay: IgG?
A: 1140 ng/µL

Q: And the Enzyme Activity Endpoint Assay: scIgG?
A: 0 ng/µL

Q: What does the source list for B10?
A: Enzyme Activity Endpoint Assay: Fab′2: 423 ng/µL; Enzyme Activity Endpoint Assay: Fc: 277 ng/µL; Enzyme Activity Endpoint Assay: IgG: 46 ng/µL; Enzyme Activity Endpoint Assay: scIgG: 204 ng/µL

Q: With B11 as the protein, how does the Enzyme Activity Endpoint Assay: Fab′2 read?
A: 912 ng/µL

Q: And the Enzyme Activity Endpoint Assay: Fc?
A: 334 ng/µL

Q: And the Enzyme Activity Endpoint Assay: IgG?
A: 0 ng/µL

Q: What about the Enzyme Activity Endpoint Assay: scIgG of the same protein?
A: 0 ng/µL

Q: For B12, which Enzyme Activity Endpoint Assay: Fab′2 is on record?
A: 0 ng/µL

Q: What about the Enzyme Activity Endpoint Assay: Fc of the same protein?
A: 76 ng/µL

Q: And the Enzyme Activity Endpoint Assay: IgG?
A: 615 ng/µL

Q: What about the Enzyme Activity Endpoint Assay: scIgG of the same protein?
A: 317 ng/µL

Q: B13 was tested. Which Enzyme Activity Endpoint Assay: Fab′2 did it give?
A: 98 ng/µL

Q: What about the Enzyme Activity Endpoint Assay: Fc of the same protein?
A: 189 ng/µL

Q: What about the Enzyme Activity Endpoint Assay: IgG of the same protein?
A: 86 ng/µL

Q: What about the Enzyme Activity Endpoint Assay: scIgG of the same protein?
A: 592 ng/µL

Q: B14 was tested. Which Enzyme Activity Endpoint Assay: Fab′2 did it give?
A: 657 ng/µL

Q: And the Enzyme Activity Endpoint Assay: Fc?
A: 158 ng/µL

Q: What about the Enzyme Activity Endpoint Assay: IgG of the same protein?
A: 0 ng/µL

Q: And the Enzyme Activity Endpoint Assay: scIgG?
A: 0 ng/µL
